Tests used:
[1] = test system: Hsp90 complexes in K562 cell extract; assay: Nano-LC-MS/MS of PU-beads pull-downs; format: binding; settings: protein identified in PU-beads pull-down of K562 cell extract, QSTAR-Elite QTof MS
In short: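 Proteins were identified by data-dependent nano LC-MS/MS (QTof, ESI) and Mascot searching (p<0.05), then reported as spectral counts and coverage via Scaffold. Inputs were PU-bead versus control-bead pull-downs from lysate pre-cleared with control beads overnight at 4 °C, eluted by boiling in 2% SDS.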

[2] = test system: Hsp90 complexes in Mia-PaCa-2 cell extract; assay: Nano-LC-MS/MS of PU-beads pull-downs; format: binding, human; settings: protein identified in PU-beads pull-down of Mia-PaCa-2 cell extract; QSTAR-Elite QTof MS
In short: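 They came from PU-bead pull-downs of pre-cleared lysates (control beads, overnight, 4 °C), eluted by boiling in 2% SDS, gel-separated and run by data-dependent nano-ESI QTof MS/MS.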

B1: O60613 (protein, UniProt O60613 1-165, looked up)
chain: MVAMAAGPSGCLVPAFGLRLLLATVLQAVSAFGAEFSSEACRELGFSSNLLCSSCDLLGQFNLLQLDPDCRGCCQEEAQFETKKLYAGAILEVCGUKLGRFPQVQAFVRSDKPKLFRGLQIKYVRGSDPVLKLLDDNGNIAEELSILKWNTDSVEEFLSEKLERI
modifications: full-length
For B1, the “Number of Assigned Spectra, K562 Prep 1” value ([1]; Prep 1) was 0, the “Number of Assigned Spectra, K562 Prep 2” value ([1]; Prep 2) was 0 and the “Number of Assigned Spectra, Mia-Paca 2” value [2] was 2.
